# The DeepSol protein solubility set
# Test: soluble on expression in E. coli; label from the status in PepcDB or PDB records
row,Sequence,soluble on expression in E. coli
1,MYKAFYGLSDNPFSIAPNPHYLFLSDRHREALAHLTYGLGETGGFVLLTGEVGTGKTTVSRCLLGQLPDNTDTAFILNPSLTELELLATLCDELKISYGENPTLKQLTDHLSRFLLANHEKGRKTVLIIDEAQHLRAEVLEQLRLLTNLETDTKKLLQVILIGQPELQLLLKRQELRQLAQRITARYHLLPLNEDEITLYVLHRLQVAGRFEPLFTRKAIKVLHKYSGGIPRLINLLCERALMAGYAQSKVPIDHHMVRQAAAEVLGEEKPSQNKFLWPSAIAAALVLTFGVSYWLFTDHAVVATVANENVTQPKQTVIAENAVQQSQTALTNTAPAITLAQTPAAPDPNLRVLQEAIKQSRQIDTAFAGLFNVWGKVPFKGLTACQSAFEQGLSCYQQQGNWMSLTRLNYPAVVYLVDDNQQDFYGAVIAVDGEQLLMQLGEQQLWVERTWFNQHFSGTFEILWQAPNLPMMEISQKSSPGQLQWLENALAHVAKRPSRRVSQFDLKLENDLKAFQSQHGLKADGIAGNQTLVRLNLYLSDQGPRLTDNGAQS,not soluble
2,KILAVTACPTGIAHTFMAADALKEKAKELGVEIKVETNGSSGIKHKLTAQEIEDAPAIIVAADKQVEMERFKGKRVLQVPVTAGIRRPQELIEKAMNQDAPIY,soluble
3,MGSDKIHHHHHHMKKMLKPFYNWLRLKLQFLEEAYYFWLLLCRHNASVNTEASMKKMQYILLREAHVIEKGMSMRNPRKGFGQAKILIMLQNLNRYYDLYSTEDLDFLKFPISTVGSYIQYTNEMGIDITKIEQQYLNLVSRTGFQNLNRHSGIESIAKSDILKECNKTFESLLYSRHSIRYFDNKIPSKEMLEKALKLASRTPSACNRQGWLTHIFIGEKSYSLLQWQGGSNGFEKEIHCSILVTANLNAFLSYEVHQAYVDGGLYAMNLLNALHSLGLGTIPLSCGFGYSKLRMLKKQFYIPENEVPIMIIGVGELLDHFNVAISMRRDVSTTNTYHY,not soluble
4,MGSDKIHHHHHHADGRYIEVTGTSEIEIVPDRIHYIIEIREYFEEEFDGRSKPEEYRTKISLDRIEQGLREVLHDAGISPNAVRTQEIGDYWRKQGQDFLVAKTFDITLLDFKQIDEILKRMDTKGIHTMRIGELENKDMLSYHQKGKIAALKAAQRKASYLVEALGKKLGPVIRIVEDEAGSSLPFSQSNVLSSSVVSFDSFRTIKKKYSMLVRFEIAD,not soluble
5,MTLYIGMNNTSGKAITDIDHLRQSVRDILLTPQGSRIARREYGSLLSALIDQPQNPALRLQVMSAVYVALSRWEPRLTLDSITINSHFDGSMVVELAGRRNNGVPVSLSVSTGAENGSD,not soluble
6,MITLNHIAKTYYQGKLAVPILHGISLTIQSGEFVSIMGPSGSGKSTLMNIIGCLDRPTEGEYMLNDVNILTADESKLALIRNEYIGFVFQHFNLLPRLSAVENVELPLVYGGIKKAERRKRALEALGKVGLADRVHHLPNELSGGQKQRVAIARAIANNPTFIMADEPTGALDTKSGEQVMDIFTKLNAEGTTIVMVTHEEEVAAYSSRRIVLRDGKITEDRRCAV,not soluble
7,MCYHLIIDSFIDRISRMHTQRGLEVTTGSIEAVDSINYFHEQVLSSGQNAIQILDSAKKHTDNLLIQTYAAAFYLYAQEDVANEQASDYLQSAFRLLTSANEREKLIFEAVTNWSKRDYANAISLLVTLLERYPRDTLALKFMEWLFYCTGQAFNAEYFLKVCDKCAPENQDESHFLAIHSFALELCGQYSKAKEMAEEAITMNLLTPWAHHTLAHVHLLTSDITGGINRLRDLQKTWEDILPLLKGHNTWHLALFYLANRNEEEVKKLYPHISGALPDTVLEQLDTISLLWRMDMAGLPQDRLLNQVVDHLSTHPLEYYTGFTNAHFIYCLVKSGYKNEADESLKRMKFYACSPSSDALWGDVVLPLCQGIYAFADADYKTALMLMEPVIGECAQLGGSDAQIELFFQTYLLVLIHNKQKDKALQFFTEHLKYYNNTPLSDWWFQSANKA,not soluble
8,MTVDPASHITIPEADLARLRHCNHHDPHGFYGWHETEAGSVIRTRQVGATQVNLLIDDTSHVMTPIGDDIFAIDLGHRERADYRLEVTWPDQEPQVKADPYYFLPTVG,not soluble
9,MNQQKSLTLIVALTTSYGIGRSNSLPWKLKKEISYFKRVTSFVPTFDSFESMNVVLMGRKTWESIPLQFRPLKGRINVVITRNESLDLGNGIHSAKSLDHALELLYRTYGSESSVQINRIFVIGGAQLYKAAMDHPKLDRIMATIIYKDIHCDVFFPLKFRDKEWSSVWKKEKHSDLESWVGTKVPHGKINEDGFDYEFEMWTRDL,soluble
10,MGSDKIHHHHHHMKNSAPNKDGSIEANLTDLQVQTELYQWLSLVSHQRDKQAFTELFQFFAPKIKRFGMQRLGSNDKANELVQETMSNVWRKAHLYDGEKGAATTWVYTVMRNACFDMLRRIKTRNEQLLGDDIWPVEQALAENNPESETFSDHLMEQHMREHINKLPSSQQTVVKGVYFQSLSQEQLAQQLDVPLGTIKSRLRLALARLKLQMRDEYHD,not soluble
11,MTDYDDYEDRSGVVEEELLDFDRAMLDFQAMFPSLSNSHIEYVLRKYDGDVSATINELLYDNTPTTTTSESIPHGGDLTKLRQRRHEINEKLRENQKFLDTVTDVEIARAYEDQQLALLLEHREVNTLISEEKKKKSCSDSSSIQESRRHVKIPGKNSKNSKISVNKAKKLEPRRRSDEDRVPDGPYIGEGEVKSENFAAKIKETLRKASGSRISRLFSAP,not soluble
12,MQGQKIPATVITGFLGSGKTTMIRNLLENANGKRIALIINEFGDLGVDGGILKRCGIETCREEDVIELNNGCICCTVADDFIPTMTKLLDREDRPDHIVIETSGLALPQPLVAAFNWPEIKTQVTVDGVVTVIDAAAVAEGRFADDHDKVDAQRAADESLDHESPLEELFEDQIHAADLIVLNKADLIDAAKLDSVKADVAERSSRRVNMVPASFGKLGADVLLGLGVGTEDDIVNRRSHHEAHHGDGHEHDHDEFESFVVEAGSVADPKAFAEKLKAVIAEHDILRLKGFVDVPGKPMRLVVQAVGPRIEHYFDRPWGKDETRSTRLVVIGLHDIDEAAIAQAVKDADLEHHHHHH,not soluble
13,MPAAQEVQISIAEVIEVRGYGLNAPELLSVAVSAADRLPPCPKGTVFDTENVFLNSKGELVIKTVATSRVDRSFVPPEWAKGEEDAQAAAVYCLGAVLRAAGAEEAADVDLFSLVNILTVAMTGTRPTAHRMGQMARNQLRGRDPASMLMCIYEELMGDEDTNQKRPNRKINFLNEKSMF,not soluble
14,MGHHHHHHSHMACAEFSFHVPSLEELAGVMQKGLKDNFADVQVSVVDCPDLTKEPFTFPVKGICGKTRIAEVGGVPYLLPLVNQKKVYDLNKIAKEIKLPGAFILGAGAGPFQTLGFNSEFMPVIQTESEHKPPVNGSYFAHVNPADGGCLLEKYSEKCHDFQCALLANLFASEGQPGKVIEVKAKRRTGPLNFVTCMRETLEKHYGNKPIGMGGTFIIQKGKVKSHIMPAEFSSCPLNSDEEVNKWLHFYEMKAPLVCLPVFVSRDPGFDLRLEHTHFFSRHGEGGHYHYDTTPDIVEYLGYFLPAEFLYRIDQPKETHSIGRD,soluble
15,MNKIYIKNMVCDRCIMVVTNILSQLELKVAHIALGEIVLLCPPTEKQMQELLDQLQKVGFEIIDDKRSRIVEQIKTCIRELVHRKNGMLKTNLSDYLCENIHLDYSYLSGLFSENEGRTIEKYFIYQKIERVKELLVYDDMQLSEIAYIMNYSSVAHLSNQFKKVTGFTPTYFKQMSTQCRKPLDKL,not soluble
16,MTLTVSPTAARTPAEEKARFEGNKLAKRLARETTRAIADYNMIEAGDKVMVCLSGGKDSYALLDILLSLQKRAPFAFEIIAVNLDQKQPGFPPEILPGYLRALGVPFHIETQDTYSIVTRVIPEGKTMCSLCSRLRRGILYRVASELGATKIALGHHRDDILGTFFLNLFYGGKAKGMPPKLVSDDGRHTVIRPLAYVPESDLIAYAQFKQFPIIPCNLCGSQENLKRKEVGRMIQEWDRKHPGRSWNVFNALSRVVPSHLMDRDLFDFVGLKPTGVADAGGDTAFDQIDPEPDTAGPGCASDAPAGQADGMAEQRVVFR,not soluble
17,MADSVLKEVNCGRPEKIPKLDKACEGSKSSWKHLKLGNVEDDEYLRQYCLFHYEFHKSEGFTVDWEKYDYMFHIRPLENSPPISDIRTNADVIRDVTLFAIEKHNEAHGSKLVFVEHVSANFKFANGLLCWLTFWATDMASSAPTSQIYQVELWRRGKQFEIPIFRVKPKDEEMDDVEVKPPSPMPYDDYDKPPVVFVRAAPEDGVPFVFDRTGALYDLYRSGL,soluble
18,MTSFTIPGLSDKKASDVADLLQKQLSTYNDLHLTLKHVHWNVVGPNFIGVHEMIDPQVELVRGYADEVAERIATLGKSPKGTPGAIIKDRTWDDYSVERDTVQAHLAALDLVYNGVIEDTRKSIEKLEDLDLVSQDLLIAHAGELEKFQWFVRAHLESAGGQLTHEGQSTEKGAADKARRKSA,soluble
19,MGREVAESCVDTMLMEMVAMYSGRFYANKPELAARRIEAIGYQVGHQLSERYTMERPRFSDHLEAIKFICKDFWSEVFKKQIDNLKTNHRGTFVLQDNKFRWLSRVSIDPSSENETQDPSTPGESKAAQAVSMYLYFPCGIIRGVLSNLGIPCAVSADISSLPTCSFVIRVKA,not soluble
20,MELPPKVKNILLLDSEGKRVAVKYYSDDWPTNSAQEAFEKSVFTKTQKTNARTEVEVTALENNIVVYKFVQDLHFFVTGGEEENELILASVLEGLFDAVTLLLRSNVDKREALDNLDLIFLSFDEIIDGGIVLETDANVIAGKAGINSTDPNAPLSEQTISQALATAREHLTRSLMK,soluble
21,MSLNALIEELKRLLKECATKKIVVIGECVRDVFVNTQRLSGPSDYQYTITKQLQRREFPGGAYPVARDLSNFVSKVHFVTCSTHEFPTNLERMDVIPISRERISKTRFFSGHNSNIFHYHCVFSEEITLSLTPLQELASVFSEADLVIVLDYGHGLLNSDVRKSISQNARFVALNCQANEDKYPFHQIWKYESTDLLLLNKVEAEINLLKTGVPVQELALRLHSKFKSTYTIVTDAEHGAVIQHDYRAYSSPAMSSCVVDAVGCSDIMLGFAALAAQNGKSAEEILYFASVAAGAKTMINVHERPLSREDLYEIALGVQNEGHHHHHH,not soluble
22,MAQHPPYCRNQPGKCQIPLRDLFDRAVVLSHYIHNLSSEMFSEFDKRYTHGRGFITKAINSCHTSSLATPEDKEQAQQMNQKDFLSLIVSILRSWNEPLYHLVTEVRGMQEAPEAILSKAVEIEEQTKRLLEGMELIVSQVHPETKENEIYPVWSGLPSLQMADEESRLSAYYNLLHCLRRDSHKIDNYLKLLKCRIIHNNNC,soluble
23,MGSDKIHHHHHHMCRWAAYIGPPVHLDEVVCKPEHSLVAQSVHAFECKTQTNADGFGIAWYDSREEPGLYRDTHPAWSDPNLKSITHQVRSGLFLAHVRASTGTATSRNNCHPFTHGCWSFMHNGQVGGFENFRRRADMIIPDELYSARKGATDSEALFLIAIAEGLYEDPKGAMQRAVGRLEALSREFGHTPHMRIGAAFSCGGALYAVRYASDHLAPTVYSSKSADGTGRLVVSEPLHKGECWEAVPAGSFCRFTADDTEIEDFVPQF,not soluble
24,MGSDKIHHHHHHMSSRNRIIWREGLFIKPQHFQQQQRHTDYALHARLSALSDYFYGLQSLAINEEYLNFGRIALVNASGVMPDGTVFNIPGDDALPLPLEITDVALANQKVYLALPLAVNGVSEVGQPGQGIASRLQSHRHDVRDLHSDGGDIVSLEVGKVSLRLMLDRDDRSAYASLAIANILDKRPDGGLILDPNFMPCSISVTAIPTLKRFLGESAGLVAERARSLAQRIAAPGQQGVADVAEFMMLQLLNRAQPKLSHLARLGTLHPERLHETLVELCGELMTFTDESRLPPEFPAYRHEHQQASFEPLMMALRQALSTVLSPRAVSIQLKKQPYGVMVAMVGDAELMTSAEFVLAVRARMPQEHLRKQLLQQTKIASSEKIRELISLQLPGIPLLPLPVAPRQLPYHAGYSYFQLDRQSPAWQVLVSGNTLAFHIAGEFPELDMQLWAIRGQ,not soluble
